This note sets out measurements from paper PMC2018723.

This test has as its target viral nucleoprotein complex (HIV-1) (HIV-1 (pNL4-3)). Nature of the test: co-sedimentation; concentrated vif-defective HIV-1 virions from transfected HeLa cells loaded on a 20%/60% sucrose step gradient overlaid with 100 ul of 1% Triton X-100 (results: 0.1% Triton X-100) or PBS; SW55Ti, 60 min, 35,000 rpm, 4°C; fractions S1-S3 immunoblotted for APOBEC, CA, NC, MA. For orientation: A western blot detects proteins with antibodies after separation by electrophoresis.

In the case of “APOBEC3G (from UniProt Q9HC16 1-384) (enzyme)”, the percent of virus-associated A3G copurifying with viral NPCs was more than 70%.
